Laboratory results published in patent publication US20110239327A1, “Nematicidal Effects of Cysteine Proteinases and Methods of Use Thereof to Treat Nematode Infestation” (priority 2007, published 2011).

How the values were obtained:
[1] = test system: Heterorhabditis megidis; assay: In vitro effect on the beneficial nematode Heterorhabditis megidis; assay type: cell-based
Procedure: (§1) Eggs of M. incognita race 1 from North Carolina State University, USA were collected from tomato-infected roots grown in a glasshouse at 23° C. in a 16:8 h light-dark regime. Eggs were extracted using 1% hypochlorite (NaClO) solution (Hussey and Barker, 1973) or by picking egg masses from tomato-infected roots. Juveniles (J2) were hatched from the eggs and egg masses in water. Heterodera glycines eggs were obtained from soil samples stored in Rothamsted-Research. Second stage juveniles (J2) were hatched from the eggs in water after 10 days. Pratylenchus penetrans were a gift from Dr. Deeren Anne-Marie from the Institute for Agricultural and Fisheries Research, Merelbeke, Belgium. The beneficial nematodes Steinernema feltiae and Heterorhabditis megidis were a gift from Dr. Paul Williams from Becker Underwood.
(§2) Control wells were set up which contained J2s and distilled water with 16 mM L-cysteine. Each enzyme concentration and the controls were set up in duplicate (i.e. n=2). The actual number of active J2s per well was counted with the aid of an Olympus inverted microscope, prior to the addition of the enzymes, and then the J2s were incubated in the dark at room temperature for 2 hs, 16 hs, 24 hs or 40 hr. The number of live and dead J2s per well was counted after each enzyme incubation. The same procedure was followed when setting up further experiments to compare the effects of these enzymes with Heterodera glycines J2, Pratylenchus penetrans, Steinernema feltiae and Heterorhabditis megidis.
(§3) The beneficial nematodes Hetorhabditis megidis and Steinernema feltiae were incubated with dilutions of actinidin, bromelain and pappain from papaya latex (see concentrations used in table 3). These nematodes reacted differentially to these cysteine proteinases (Tables 4 and 5). […] S. feltiae were dead at all concentrations of actinidin tested. […] After 16 hs of observation the enzyme solutions were diluted with water (to half of the initial concentrations) however, no change in nematode movement was observed after 24 hs.

[2] = test system: M. incognita J2; assay: In planta bioassay, two soil applications: nematode infection of tomato roots; assay type: in vivo, M. incognita on tomato plants; settings: two soil applications of enzyme (250 μM papain, 2.2 μM bromelain, 3.3 mM actinidin as printed), soil 16% organic matter, 11 days
Procedure: Oxamyl is supplied as 10% liquid Vydate. 125 μl of a solution 1000 fold dilution of 10% formulation (kindly supplied by DK from NIU) was applied to 5 g of the soil mixture with 16% organic matter, to give a partial nematicidal effect. Soil mixtures were wetted with PBS pH 7.2, 16 hrs prior nematode application of 1000 or 2000 M. incognita J2. Infected soil mixtures were treated with water (control) or 250 μM of active papain in 16 mM of L-cysteine or a combination of Vydate and 250 μM of active papain in 16 mM of L-cysteine. After 48 hs tomato seedlings one month old were added to the treated soils. After 11 days the roots were washed free of soil and chopped to approximately 2 mm pieces. The root pieces of each tomato plant was placed in muslin bags and stained with acid-fuchsin. The stained roots were examined under microscope and all the nematodes present in the roots were counted. […] After 48 hours tomato seedlings one month old were added to the treated soils and after 11 days post infection nematode development inside root tissues was assessed as described above.
The avermectins are macrocyclic lactones produced by the actinomycete Streptomyces avermitilis. […] After 48 hs tomato seedlings one month old were added to the treated soils and after 11 days post infection nematode development inside root tissues was assessed as described above. […]

[3] = test system: Steinernema feltiae; assay: In vitro effect on the beneficial nematode Steinernema feltiae; assay type: cell-based
Procedure: as §1, §2, §3

[4] = enzyme concentration A (Table 3): actinidin 3.3 mM, bromelain 2.2 mM, papain 250 uM
[5] = enzyme concentration B: actinidin 1.7 mM, bromelain 1.1 mM, papain 125 uM
[6] = enzyme concentration C: actinidin 840 uM, bromelain 560 uM, papain 62.5 uM

B1: actinidin (protein, UniProt P00785 127-380, looked up)
Actinidain: LPSYVDWRSAGAVVDIKSQGECGGCWAFSAIATVEGINKIVTGVLISLSEQELIDCGRTQNTRGCNVGYITDGFQFIINNGGINTEENYPYTAQDGECNVDLQNEKYVTIDTYENVPYNNEWALQTAVTYQPVSVALDAAGDAFKHYSSGIFIGPCGTAIDHAVTIVGYGTEGGIDYWIVKNSWDTTWGEEGYMRILRNVGGAGTCGIATMPSYPVKYNNQNHPKSYSSLINPPAFSMSNDGPVGVDDGQRYSA
notes: cysteine proteinase from kiwi fruit (Actinidia chinensis), Merops C01.007
With B1 the “nematode motility or behaviour” value [1, 4] was “All paralysed”, the “nematode motility or behaviour” value [1, 5] was “All paralysed” and the “nematode motility or behaviour” value [1, 6] was “All paralysed”. For the same molecule, the “effect on H. megidis” value ([1]; higher concentrations) was “paralysed”, the “effect on H. megidis” value ([1]; lower concentrations) was “only affected slightly” and the “reduction of nematode infection of plants” value [2] was 99%. For the same molecule, the “state of S. feltiae” value ([3]; all concentrations of actinidin tested) was “dead”, the “nematode motility or behaviour” value [3, 4] was “All dead” and the “nematode motility or behaviour” value [3, 5] was “All dead”. The “nematode motility or behaviour” value [3, 6] was “All dead”, the “nematode motility or behaviour” value ([3]; enzyme concentration D: actinidin 420 uM, bromelain 280 uM, papain 31 uM) was “All dead” and the “nematode motility or behaviour” value ([3]; enzyme concentration E: actinidin 210 uM, bromelain 140 uM, papain 15 uM) was “All dead”. The “nematode motility or behaviour” value ([3]; enzyme concentration F: actinidin 105 uM, bromelain 70 uM, papain 7.5 uM) was “All dead”.
